Source: patent US20250170267A1, “ANTIBODY-DRUG CONJUGATE PRECURSOR AND INTERMEDIATE FOR SYNTHESIS THEREOF” (UBE Corporation, priority 2022, published 2025)
Numbered stars: 1 amine (or outer) side, 2 acyl side, 3 side chain; on linkers, the order of the positions; unused ones are H or OH. Square brackets hold non-standard residues; d marks the D form. Peptide text beside a SMILES is read from it. * marks the point of attachment. Exatecan = CC[C@@]1(O)C(=O)OCc2c1cc1n(c2=O)Cc2c-1nc1cc(F)c(C)c3c1c2[C@@H](N*)CC3; βAla(2S-maleimido) = O=C1C=CC(=O)N1[C@@H](CN[*:1])C(=O)[*:2]; Dolaproine = CO[C@@H]([C@@H]1CCCN1)[C@@H](C)C(=O)O; Hexanoyl(6-maleimido) = O=C1C=CC(=O)N1CCCCCC(=O)*; Propanoyl(3-maleimido) = O=C1C=CC(=O)N1CCC(=O)*; Dil = CC[C@H](C)[C@H](NC)[C@@H](CC(=O)O)OC; X3 = C[C@@H](N*)[C@@H](OP(=O)(O)O)c1ccccc1; Propanoyl(3-PO3H2) = O=C(CCP(=O)(O)O)*; PABC = O=C(OCc1ccc(N[*:1])cc1)[*:2]; NHCH2OCH2CO = O=C(COCN[*:1])[*:2]; X1 = C[C@@H](N*)[C@@H](O)c1ccccc1; hSer(lactone) = O=C1OCC[C@@H]1N*; Cit = NC(=O)NCCC[C@H](N)C(=O)O; PEG4 = NCCOCCOCCOCCOCCC(=O)O; NMeV = CN[C@H](C(=O)O)C(C)C

Key:
human liver lysosome = experiment: Metabolism test using human liver lysosomal fraction; format: in vitro ADME; details: 37° C., 24 hours, released drug, LC-MS/MS
Description: To a reaction composition solution (X10 Catabolic Buffer (manufactured by SEKISUI-Xenotech, LLC., K5200))(60 μL) in which human liver lysosome (manufactured by SEKISUI-Xenotech, LLC., Cat No. H610.L 2.5 mg/mL)(corresponding to 0.125 mg of protein) was suspended and distilled water (manufactured by FUJIFILM Wako Pure Chemical Corporation, for HPLC)(10 μL) was added 1.2 μM test compound (antibody-drug conjugate produced in ADC Production examples)(25 μL) dissolved in PBS to prepare a reaction solution. After the reaction solution was incubated at 37° C. for 24 hours, “an antitumor drug molecule or an analog thereof, or a derivative thereof” released from the antibody-drug conjugate into the reaction solution was quantified by LC-MS/MS (high performance liquid chromatography/mass spectrometer system) under the following conditions. LC-MS/MS analysis conditions
(§1) LC: LC20 or LC30 HPLC system manufactured by Shimadzu Corporation
(§2) Column: Phenomenex Kinetex C18 (50×2.1 mm, 2.6 μm)
(§3) Column temperature: 40° C.
(§4) Mobile phase A: 0.1% aqueous solution of formic acid, Mobile phase B: 0.1% solution of formic acid in a mixture of 50% acetonitrile/methanol
(§5) Mode: Positive or Negative
(§6) The release rate (%) of drug was calculated by the following equation.

[1] = Pharmacokinetic test (serum trastuzumab residual rate); format: in vivo; details: female BALB/c mouse, intravenous; 3 days vs 5 minutes after administration
From the text: After a prescribed time period, the blood was collected from the jugular vein or abdominal vein, and centrifuged to prepare a serum. The resulting serum was cryopreserved until the measurement.

[2] = Retention time in HPLC (index of hydrophilicity); format: physicochemical; details: BEH C18, 0.1% formic acid/acetonitrile gradient, 40° C.
Description: As an index of hydrophilicity of the Examples, the retention time (RT) in HPLC analysis was measured, and compared.
Device: LCMS2020 system Shimadzu Corporation
Column: Acquity UPLC (registered trademark) BEH C18 (2.1×50 mm, 1.7 μm)_Waters
Eluent: Solution A: 0.1% aqueous solution of formic acid, Solution B: 0.1% solution of formic acid in acetonitrile

human liver Cathepsin B = biological target: T1, human liver Cathepsin B (Homo sapiens, UniProt P07858); experiment: Metabolism test using human liver Cathepsin B; format: in vitro ADME; details: 37° C., 24 hours, released drug, LC-MS/MS
T1 construct: human liver Cathepsin B (manufactured by Sigma-Aldrich Co. LLC, Cat No. C8571 25 μg/vial); purchased Sigma-Aldrich Co. LLC C8571; host or cells: human liver
Description: To human liver Cathepsin B (manufactured by Sigma-Aldrich Co. LLC, Cat No. C8571 25 μg/vial)(corresponding to 400 Unit/mL)(5 μL), X10 Catabolic Buffer (manufactured by SEKISUI-Xenotech, LLC., K5200)(10 μL), 2.5 mM Bovine Serum Albumin (manufactured by FUJIFILM Wako Pure Chemical Corporation, Cat No. 012-15093)(5 μL), and distilled water (manufactured by FUJIFILM Wako Pure Chemical Corporation, for HPLC)(55 μL) was added 1.2 μM test compound (antibody-drug conjugate prepared in ADC Production examples)(25 μL) dissolved in PBS to prepare a reaction solution. After the reaction solution was incubated at 37° C. for 24 hours, “an antitumor drug molecule or an analog thereof, or a derivative thereof” released from the antibody-drug conjugate into the reaction solution was quantified by LC-MS/MS (high performance liquid chromatography/mass spectrometer system) under the following conditions. LC-MS/MS analysis conditions
as §1, §2, §3, §4, §5, §6

| SMILES | Release rate (%) of drug from ADC (human liver lysosome) | Serum trastuzumab residual rate after 3 days from administration (%) [1] | Retention time in HPLC measurement ([2]; Table 5 (MMAE-type precursors)) | Release rate (%) of drug from ADC (human liver Cathepsin B) | Retention time in HPLC measurement ([2]; Table 6 (eribulin precursors)) |
| --- | --- | --- | --- | --- | --- |
| CC[C@H](C)[C@@H]([C@@H](CC(=O)N1CCC[C@H]1[C@H](OC)[C@@H](C)C(=O)N[C@H](C)[C@@H](O)c1ccccc1)OC)N(C)C(=O)[C@@H](NC(=O)[C@H](C(C)C)N(C)C(=O)OCc1ccc(NC(=O)[C@H](CCCNC(N)=O)NC(=O)[C@@H](NC(=O)[C@H](CC(=O)N[C@H]2CCOC2=O)NC(=O)CCOCCOCCOCCOCCNC(=O)CCN2C(=O)C=CC2=O)C(C)C)cc1)C(C)C [Example 1] ({Propanoyl(3-maleimido)-PEG4}-D(hSer(lactone))V[Cit][PABC][NMeV]V[Dil][Dolaproine]-X1) | 68% | 35% | 1.12 min | 71% |  |
| CC[C@H](C)[C@@H]([C@@H](CC(=O)N1CCC[C@H]1[C@H](OC)[C@@H](C)C(=O)N[C@H](C)[C@@H](OP(=O)(O)O)c1ccccc1)OC)N(C)C(=O)[C@@H](NC(=O)[C@H](C(C)C)N(C)C(=O)OCc1ccc(NC(=O)[C@H](CCCNC(N)=O)NC(=O)[C@@H](NC(=O)[C@H](CC(=O)N[C@H]2CCOC2=O)NC(=O)CCOCCOCCOCCOCCNC(=O)CCN2C(=O)C=CC2=O)C(C)C)cc1)C(C)C [Example 2] ({Propanoyl(3-maleimido)-PEG4}-D(hSer(lactone))V[Cit][PABC][NMeV]V[Dil][Dolaproine]-X3) |  |  | 0.96 min |  |  |
| CC[C@H](C)[C@@H]([C@@H](CC(=O)N1CCC[C@H]1[C@H](OC)[C@@H](C)C(=O)N[C@H](C)[C@@H](OP(=O)(O)OCc1ccc(NC(=O)[C@H](CCCNC(N)=O)NC(=O)[C@@H](NC(=O)[C@H](CC(=O)N[C@H]2CCOC2=O)NC(=O)CCOCCOCCOCCOCCNC(=O)[C@H](CNC(=O)CCP(=O)(O)O)N2C(=O)C=CC2=O)C(C)C)cc1)c1ccccc1)OC)N(C)C(=O)[C@@H](NC(=O)[C@H](C(C)C)N(C)C)C(C)C [Example 3] |  |  | 0.70 min |  |  |
| CC[C@H](C)[C@@H]([C@@H](CC(=O)N1CCC[C@H]1[C@H](OC)[C@@H](C)C(=O)N[C@H](C)[C@@H](O)c1ccccc1)OC)N(C)C(=O)[C@@H](NC(=O)[C@H](C(C)C)N(C)C(=O)OCc1ccc(NC(=O)[C@H](CCCNC(N)=O)NC(=O)[C@@H](NC(=O)[C@H](CC(=O)N[C@H]2CCOC2=O)NC(=O)CCOCCOCCOCCOCCNC(=O)[C@H](CNC(=O)CCP(=O)(O)O)N2C(=O)C=CC2=O)C(C)C)cc1)C(C)C [Example 8] ({Propanoyl(3-PO3H2)}-[βAla(2S-maleimido)][PEG4]D(hSer(lactone))V[Cit][PABC][NMeV]V[Dil][Dolaproine]-X1) | 60% |  | 1.03 min | 41% |  |
| CC[C@@]1(O)C(=O)OCc2c1cc1n(c2=O)Cc2c-1nc1cc(F)c(C)c3c1c2[C@@H](NC(=O)COCNC(=O)CNC(=O)[C@H](Cc1ccccc1)NC(=O)CNC(=O)CNC(=O)[C@H](CC(=O)N[C@H]1CCOC1=O)NC(=O)CCCCCN1C(=O)C=CC1=O)CC3 [Example 13] ({Hexanoyl(6-maleimido)}-D(hSer(lactone))GGFG[NHCH2OCH2CO]-Exatecan) | 76% | 25% |  | 24% |  |
| C=C1C[C@@H]2CC[C@@]34C[C@H]5O[C@H]6[C@@H](O3)[C@H]3O[C@H](CC[C@@H]3O[C@H]6[C@H]5O4)CC(=O)C[C@@H]3[C@@H](OC)[C@@H](C[C@H](O)CNC(=O)OCc4ccc(NC(=O)[C@H](CCCNC(N)=O)NC(=O)[C@@H](NC(=O)[C@H](CC(=O)N[C@H]5CCOC5=O)NC(=O)CCOCCOCCOP(=O)(O)OCCNC(=O)[C@H](CNC(=O)CCP(=O)(O)O)N5C(=O)C=CC5=O)C(C)C)cc4)O[C@H]3C[C@H]3O[C@@H](CC[C@@H]1O2)C[C@@H](C)C3=C [Example 17] | 56% |  |  | 58% | 1.04 min |
| C=C1C[C@@H]2CC[C@@]34C[C@H]5O[C@H]6[C@@H](O3)[C@H]3O[C@H](CC[C@@H]3O[C@H]6[C@H]5O4)CC(=O)C[C@@H]3[C@@H](OC)[C@@H](C[C@@H](CNC(=O)OCc4ccc(NC(=O)[C@H](CCCNC(N)=O)NC(=O)[C@@H](NC(=O)[C@H](CC(=O)N[C@H]5CCOC5=O)NC(=O)CCOCCOCCOCCOCCNC(=O)[C@H](CNC(=O)CCP(=O)(O)O)N5C(=O)C=CC5=O)C(C)C)cc4)OP(=O)(O)O)O[C@H]3C[C@H]3O[C@@H](CC[C@@H]1O2)C[C@@H](C)C3=C [Example 26] |  |  |  |  | 0.91 min |
